Where a chain is given by its changes, count along the chain named. Names may count otherwise.
B1: brome mosaic virus (BMV) capsid protein, wild type (natural protein)
chain: STSGTGKMTRAQRRAAARRNRWTARVQPVIVEPLAAGQGKAIKAIAGYSISKWEASSDAITAKATNAMSITLPHELSSEKNKELKVGRVLLWLGLLPSVAGRIKACVAEKQAQAEAAFQVALAVADSSKEVVAAMYTDAFRGATLGDLLNLQIYLYASEAVPAKAVVVHLEVEHVRPTFDDFFTPVYR
B2: brome mosaic virus (BMV) capsid protein R142A (natural protein)
chain: B1 chain with R141A
B3: brome mosaic virus (BMV) capsid protein D148A (natural protein)
chain: B1 chain with D147A

Molecular target: the molecule itself

Q: Does B1 bind?
A: binds

Q: Does B2 bind?
A: binds

Q: Does B3 bind?
A: binds
